From patent publication US20050070001A1, “Xylosyltransferase and isoforms thereof” (priority 1999, published 2005)
Each block holds one molecule with its values, some of them ahead of it.

Assays:
recombinant XT-I = target: T1, recombinant XT-I (Homo sapiens, UniProt Q86Y38); test: XT activity assay of recombinant XT-I expressed in CHO-K1 cells with different acceptors and with heparin; type: biochemical; conditions: for XT Activitiy pCG227-XT: recombinant XT-I from CHO-K1 cells, immunoprecipitated on beads, named acceptor, without heparin, n.d. = not detected (detection limit 20 μU/l)
T1 construct: polyhistidine leader of vector pcDNA4/HisMax-TOPO (own knowledge of the vector); made in house; host or cells: CHO-K1, transient transfection with pCG227-XT-I
T1 sequence (Q86Y38 148-959): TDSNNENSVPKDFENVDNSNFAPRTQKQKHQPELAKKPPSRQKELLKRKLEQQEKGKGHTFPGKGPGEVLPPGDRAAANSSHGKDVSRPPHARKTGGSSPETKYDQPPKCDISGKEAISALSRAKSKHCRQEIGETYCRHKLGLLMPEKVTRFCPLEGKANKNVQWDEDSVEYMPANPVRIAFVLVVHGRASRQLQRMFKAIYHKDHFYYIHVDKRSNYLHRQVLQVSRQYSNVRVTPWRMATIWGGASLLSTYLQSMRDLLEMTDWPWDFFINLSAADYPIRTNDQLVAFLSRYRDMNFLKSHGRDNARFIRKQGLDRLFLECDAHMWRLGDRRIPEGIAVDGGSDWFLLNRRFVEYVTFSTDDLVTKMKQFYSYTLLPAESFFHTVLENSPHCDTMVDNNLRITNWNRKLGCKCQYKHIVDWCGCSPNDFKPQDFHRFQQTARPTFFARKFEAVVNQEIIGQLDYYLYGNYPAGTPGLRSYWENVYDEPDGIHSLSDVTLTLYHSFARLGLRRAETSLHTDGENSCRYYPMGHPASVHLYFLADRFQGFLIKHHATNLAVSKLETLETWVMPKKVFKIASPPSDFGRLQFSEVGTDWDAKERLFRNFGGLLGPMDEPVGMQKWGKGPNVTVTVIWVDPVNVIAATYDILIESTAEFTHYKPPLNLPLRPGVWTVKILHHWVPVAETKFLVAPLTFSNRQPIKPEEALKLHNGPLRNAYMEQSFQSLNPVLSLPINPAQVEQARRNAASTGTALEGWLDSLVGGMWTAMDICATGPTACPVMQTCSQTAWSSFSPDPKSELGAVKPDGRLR
Excerpt: The degenerate primers PFF-sense and Lysc-inv1 which were designed upon the amino acid sequence of proteolytic cleaved peptides of human XT-I were used in a PCR reaction with first strand cDNA of placenta poly(A)^+ mRNA as template. […] To clone the complete coding sequence of the novel cDNA, the RACE strategy was employed. The cDNA finally obtained was 3608 bp (FIG. 8A) and contained a single open reading frame encoding a protein of 865 amino acids with a molecular mass of 97.000. The 3′-untranslated region is 850 bp and a 5′-untranslated region of 149 bp was identified with an in-frame stop codon upstream of the ATG codon. […] No detectable XT activity was recovered by the affinity purification from a control transfection sample. The substrate specificity of the recombinant XT-I was similar to that of the XT-I isolated from human body fluids and cell culture supernatants.
Determination of XT activity. Determination of XT activity is based on the incorporation of [14C]-D-xylose into the recombinant bikunin according to a previously described method (Brinkmann et al., 1997, J. Biol. Chem., 272, 11171-11175). For analysis of the substrate specificity of the recombinant xylosyltransferases synthetic peptides containing the XT recognition sequence were used as acceptor. The reaction mixture for the assay contained, in a total volume of 100 μl: 50 μl of XT solution, 25 mM 4-morpholineethanesulfonic acid (pH 6.5), 25 mM KCl, 5 mM KF, 5 MM MgCl2, 5 mM MnCl2, 1.0 μM UDP-[^14C]-D-xylose, and 1.5 μM of the synthetic peptides. After incubation for 75 min at 37° C., the reaction mixtures were placed on discs (25 mm diameter) of Immobilon-AV membrane, which immobilizes even small peptides by covalent links (Pfund & Bourdage, 1990, Mol. Immunol. 27, 495-502), and allowed to dry. It was then washed for 10 min with 10% trichloroacetic acid and three times with 5% trichloroacetic acid solution. Incorporated radioactivity was determined by liquid scintillation counting.
Transfection and transient expression of XT. For construction of a eukaryotic expression vector a DNA fragment including the known coding sequence of XT-I cDNA was amplified by PCR using XT_Exp1L 5′-[…]-3′ and XT_Exp3U 5′-[…]-3′ as primers and placenta first-strand cDNA (Clontech) as template. The 2450 bp fragment obtained was cloned into the vector pcDNA4/HisMax-TOPO (Invitrogen) resulting in the fusion of XT-I to the Xpress epitope. The plasmid pCG227-XT-I was then transiently transfected into CHO-K1 cells. The coding region of the XT-II cDNA was amplified by PCR using the primers AB_Exp9U 5′-AAAGGAAGGCAGAGGAAGC-3′ and AB_Exp3L 5′-ACCCCTCCACTGT-CTGTAAG-3′ and placenta first-strand cDNA as template. The obtained 2440 bp DNA fragment was cloned into the expression vector pcDNA4/HisMax-TOPO resulting in the fusion of XT-II to the aminoterminal Xpress epitope. The plasmid termed pCG226-XT-II was transiently transfected into CHO-K1 cells. 2×10^5 cells precultured for 1 day in a 35 mm diameter cell culture dish were transfected with 2 μg of plasmid DNA and 6 μl of Fugene 6 transfection reagent (Roche, Mannheim, Germany). For determination of transfection efficiency CHO-K1 cells were transfected with 2 μg of the control plasmid pcDNA4/HisMax-TOPO-lacZ. 48 h after transfection the cell culture medium was harvested. Protein G agarose beads (Sigma, Deisenhofen, Germany) and mouse anti-Xpress monoclonal antibody (Invitrogen) were added to the cell culture supernatant and incubated at 4° C. for 1 h. […]

XT [1] = test: Effect of protamine chloride added to the XT assay solution; type: biochemical, human
Excerpt: UDP-D-xylose: proteoglycan core protein β-D-xylosyltransferase can be isolated and purified from JAR choriocarcinoma cell culture. The isolated protein according to the invention is a single stranded polypeptide with a molecular weight of 120.000. The protein was enzymatically cleaved and eleven peptide fragments were sequenced by Edman degradation (see Examples). XT is present only in very small amounts in animal tissues but unlike other glycosyltransferases, more than 90% of XT is enriched in the medium of cultured cells. The highest secretion of XT activity was measured in JAR choriocarcinoma cell culture, in which sternal cartilage chondrocytes and 21 different human cell lines were examined. To produce a highly enriched XT solution for the isolation of XT, JAR choriocarcinoma cells were adapted to hollow fiber culture conditions using a novel bioreactor (TECNOMOUSE) and Ultradoma-PF medium without serum addition as nutrient. For purification of XT a combination of classic separation methods and new affinity matrices was employed. Therefore, a heparin matrix was used as an affinity ligand for the XT. […]
Determination of XT activity. […] Incorporated radioactivity was determined by liquid scintillation counting.

[2] = Storage stability of purified XT enzyme activity; type: physicochemical; conditions: purified XT after protamine affinity chromatography, stored at −75° C.
Description: Step 4: Affinity chromatography on protamine chloride The product of step 3 was desalted and concentrated using dia- and ultrafiltration. […] Additional proteins were eluted with buffer A containing low NaCl concentrations. Enzyme activity was eluted at approximately 0.15 M NaCl (FIG. 1C). The enzyme activity was stable for at least 6 months at −75° C.
Step 4: Affinity chromatography on protanine chloride—XT-containing solution from step 3 was desalted as described above and concentrated to 5 ml by ultrafiltration with YM1 cellulose membranes. The ultrafiltration product was passed through a 0.2 μm filter. 100 μl of the filtrate was loaded onto a protamine chloride—POROS column (4.6×50 mm) equilibrated with buffer A. The flow rate was 10 ml/min. The column was washed with 10.0 ml of buffer A, and the adsorbed fraction was eluted with the same buffer containing NaCl by a stepwise increase of the NaCl concentration: 6.6 ml buffer A/0.04 M NaCl; 6.6 ml buffer A/0,06 M NaCl; 6.6 ml buffer A/0.23 M NaCl followed by a linear gradient of 0.23-1.20 M NaCl (4.2 ml) in buffer A. Fractions of 6.0 ml were collected, assayed for XT activity and evaluated by SDS-PAGE. Cyclic chromatography was repeated 50 times. The purified enzyme was collected, concentrated to 1.0 ml using ultrafiltration techniques and stored at −75° C.

XT [3] = conditions: cited from earlier work

- inhibition of enzyme activity of recombinantly expressed XT-I (recombinant XT-I; addition of 250 U of heparin): completely inhibited
Molecule: heparin

- XT Activitiy pCG227-XT (recombinant XT-I): 492 μU/l
Molecule: TENEGSGLTNIK [L-APP peptide TENEGSGLTNIK, synthetic L-APP homologous peptide used as XT acceptor]

- XT Activitiy pCG227-XT (recombinant XT-I): 2854 μU/l
B2: Recombinant bikunin: recombinant bikunin, the inhibitory component of human inter-α-trypsin inhibitor; XT acceptor protein (protein, UniProt P02760 206-352, looked up)
Inter-alpha-trypsin inhibitor …: AVLPQEEEGSGGGQLVTEVTKKEDSCQLGYSAGPCMGMTSRYFYNGTSMACETFQYGGCMGNGNNFVTEKECLQTCRTVAACNLPIVRGPCRAFIQLWAFDAVKGKCVLFPYGGCQGNGNKFYSEKECREYCGVPGDGDEELLRFSN
modifications: Inter-alpha-trypsin inhibitor light chain recombinant
notes: XT acceptor protein
- Km (XT [3]; enriched XT preparation from conditioned cell culture supernatant of human chondrocytes, read-out: Michaelis-Menten (Km) constant for in vitro xylosylation): 22 µM
- decrease of Km in comparison to deglycosylated core protein from bovine cartilage (XT [3]; enriched XT preparation from human chondrocytes): 9 fold

More lines, now with the values behind:

Molecule: protamine chloride
- effect on XT activity (XT [1]): increased XT activity

Molecule: QEEGSGGGGQK [Bikunin peptide QEEGSGGGGQK, synthetic bikunin homologous peptide used as XT acceptor]
- XT Activitiy pCG227-XT (recombinant XT-I): 463 μU/l

Molecule: SENEGSGMAEQK [L-APLP2 peptide SENEGSGMAEQK, synthetic L-APLP2 homologous peptide used as XT acceptor]
- XT Activitiy pCG227-XT (recombinant XT-I): 515 μU/l

B1: UDP-D-xylose:proteoglycan core protein β-D-xylosyltransferase (protein, UniProt Q86Y38 1-959, looked up)
Xylosyltransferase 1: MVAAPCARRLARRSHSALLAALTVLLLQTLVVWNFSSLDSGAGERRGGAAVGGGEQPPPAPAPRRERRDLPAEPAAARGGGGGGGGGGGGRGPQARARGGGPGEPRGQQPASRGALPARALDPHPSPLITLETQDGYFSHRPKEKVRTDSNNENSVPKDFENVDNSNFAPRTQKQKHQPELAKKPPSRQKELLKRKLEQQEKGKGHTFPGKGPGEVLPPGDRAAANSSHGKDVSRPPHARKTGGSSPETKYDQPPKCDISGKEAISALSRAKSKHCRQEIGETYCRHKLGLLMPEKVTRFCPLEGKANKNVQWDEDSVEYMPANPVRIAFVLVVHGRASRQLQRMFKAIYHKDHFYYIHVDKRSNYLHRQVLQVSRQYSNVRVTPWRMATIWGGASLLSTYLQSMRDLLEMTDWPWDFFINLSAADYPIRTNDQLVAFLSRYRDMNFLKSHGRDNARFIRKQGLDRLFLECDAHMWRLGDRRIPEGIAVDGGSDWFLLNRRFVEYVTFSTDDLVTKMKQFYSYTLLPAESFFHTVLENSPHCDTMVDNNLRITNWNRKLGCKCQYKHIVDWCGCSPNDFKPQDFHRFQQTARPTFFARKFEAVVNQEIIGQLDYYLYGNYPAGTPGLRSYWENVYDEPDGIHSLSDVTLTLYHSFARLGLRRAETSLHTDGENSCRYYPMGHPASVHLYFLADRFQGFLIKHHATNLAVSKLETLETWVMPKKVFKIASPPSDFGRLQFSEVGTDWDAKERLFRNFGGLLGPMDEPVGMQKWGKGPNVTVTVIWVDPVNVIAATYDILIESTAEFTHYKPPLNLPLRPGVWTVKILHHWVPVAETKFLVAPLTFSNRQPIKPEEALKLHNGPLRNAYMEQSFQSLNPVLSLPINPAQVEQARRNAASTGTALEGWLDSLVGGMWTAMDICATGPTACPVMQTCSQTAWSSFSPDPKSELGAVKPDGRLR
notes: enzyme (EC 2.4.2.26) purified from JAR choriocarcinoma cell culture supernatant, MW 120.000
- time for which enzyme activity was stable [2]: at least 6 months
